According to the Immune Epitope Database (IEDB):
One block for each sequence: values may come before it.

Experiments:
[1] = molecular target: HLA-A*31:01; assay: IEDB peptide-MHC binding, purified MHC/direct/fluorescence; filed as Kd, often an IC50 or EC50 that approximates it; ≥ and ≤ were set here for values at or beyond the usual limits of such assays
[2] = molecular target: HLA-B*27:05; assay: as above
[3] = molecular target: HLA-A*11:01; assay: as above
[4] = molecular target: HLA-B*07:02; assay: as above
[5] = molecular target: HLA-B*15:01; assay: as above
[6] = molecular target: HLA-A*01:01; assay: as above
[7] = molecular target: HLA-A*02:01; assay: as above
[8] = molecular target: HLA-B*40:01; assay: as above
[9] = molecular target: HLA-B*58:01; assay: as above
[10] = molecular target: HLA-A*69:01; assay: as above
[11] = molecular target: HLA-B*08:01; assay: as above
[12] = molecular target: HLA-A*03:01; assay: as above
[13] = molecular target: HLA-A*26:01; assay: as above
[14] = molecular target: HLA-A*02:01; assay: IEDB peptide-MHC binding, purified MHC/competitive/fluorescence; ≥ and ≤ were set here for values at or beyond the usual limits of such assays
[15] = molecular target: HLA-A*24:02; assay: as above
[16] = molecular target: HLA-B*07:02; assay: IEDB peptide-MHC binding, purified MHC/competitive/radioactivity; filed as Kd, often an IC50 or EC50 that approximates it; ≥ and ≤ were set here for values at or beyond the usual limits of such assays
[17] = molecular target: HLA-B*35:01; assay: as above
[18] = molecular target: HLA-B*53:01; assay: as above
[19] = molecular target: HLA-A*68:02; assay: as above
[20] = molecular target: HLA-B*51:01; assay: as above
[21] = molecular target: HLA-A*02:06; assay: as above
[22] = molecular target: HLA-A*30:02; assay: as above; conditions: source organism: Dengue virus 1 Brazil/97-11/1997
[23] = molecular target: HLA-A*26:01; assay: as above
[24] = molecular target: HLA-B*44:02; assay: IEDB peptide-MHC binding, purified MHC/direct/fluorescence; filed as Kd, often an IC50 or EC50 that approximates it; ≥ and ≤ were set here for values at or beyond the usual limits of such assays; conditions: source organism: Cryptosporidium parvum
[25] = source organism: Pseudomonas aeruginosa UCBPP-PA14
[26] = source organism: Vaccinia virus Copenhagen
[27] = source organism: Sudan ebolavirus
[28] = source organism: Vaccinia virus
[29] = source organism: Zaire ebolavirus
[30] = source organism: Dengue virus 1 Brazil/97-11/1997
[31] = source organism: Dengue virus 3 Martinique/1243/1999
[32] = source organism: Dengue virus 4 Philippines/H241/1956
[33] = source organism: Dengue virus 2 Peru/IQT2913/1996
[34] = source organism: Dengue virus 2 Jamaica/1409/1983
[35] = source organism: Vaccinia virus WR
[36] = source organism: Cryptosporidium parvum

Kd [1, 25]: ≥ 20 µM
Kd [2, 25]: ≥ 20 µM
Kd [3, 25]: ≥ 20 µM
Kd [4, 25]: ≥ 20 µM
Kd ([5]; source organism: Pseudomonas aeruginosa): 0.3 µM
Kd [6, 25]: ≥ 20 µM
Kd [7, 25]: ≥ 20 µM
Kd [8, 25]: ≥ 20 µM
Kd [9, 25]: ≥ 20 µM
Kd [10, 25]: ≥ 20 µM
Kd [11, 25]: ≥ 20 µM
Kd [12, 25]: ≥ 20 µM
Kd [13, 25]: ≥ 20 µM
Sequence: GLGGDASAY

Sequence: YVSAGESSI
IC50 [14, 26]: 32.7 µM

Sequence: TQETITETA
IC50 [14, 27]: ≥ 184 µM

Sequence: RLEEEINNQ
IC50 [15, 28]: 32.6 µM
IC50 [14, 28]: ≥ 195 µM

Sequence: TETKITFAL
IC50 [15, 26]: 19 µM
IC50 [14, 26]: ≥ 83.3 µM

Sequence: ESGAVKYLE
IC50 [15, 29]: ≥ 209 µM

Sequence: DGQQFYWPV
IC50 [15, 29]: 62 µM
IC50 [14, 29]: 57.2 µM

Sequence: SPPEVERAVL
Kd [16, 30]: 0.0197 µM

Sequence: TTELRTYTI
IC50 [15, 27]: 0.925 µM
IC50 [14, 27]: ≥ 94.5 µM

Sequence: MPTVIEHLER
Kd [17, 31]: 0.871 µM
Kd [18, 31]: 7.05 µM

Sequence: LVMLLVHYA
Kd [19, 32]: 0.369 µM

Sequence: NPHLPEKKI
Kd [20, 31]: ≥ 28.8 µM

Sequence: SLEEEYPPW
IC50 [15, 29]: ≥ 179 µM
IC50 [14, 29]: ≥ 214 µM

Kd ([21]; source organism: Homo sapiens): ≥ 78.7 µM
Kd ([19]; source organism: Homo sapiens): 0.826 µM
Sequence: DLKDQIAQL

Sequence: QPESNILDI
Kd [18, 33]: 1.01 µM
Kd [20, 33]: ≥ 46.4 µM

Sequence: WVMKIGIGV
Kd [21, 31]: 0.00138 µM
Kd [19, 31]: 0.00527 µM

Sequence: YKVASEGFQY
Kd [17, 30]: 3.92 µM
Kd [22]: 0.135 µM

Sequence: MVSILASSLL
Kd [19, 34]: 0.0447 µM

Sequence: ETQGVTAEI
Kd [19, 31]: 0.00296 µM
Kd [23, 31]: 0.282 µM

Sequence: STLAGVNVG
IC50 [14, 29]: ≥ 105 µM

Sequence: TVAWRTATLI
Kd [19, 31]: 0.0615 µM

Kd ([19]; source organism: Homo sapiens): 0.0688 µM
Sequence: ELTCLNEASV

Sequence: VPTSRTTWSI
Kd [16, 34]: 0.0503 µM
Kd [20, 34]: 0.0525 µM

Sequence: LFTEQAFYT
IC50 [15, 35]: 55 µM
IC50 [14, 35]: 68.1 µM

Sequence: LPLPWTSGAT
Kd [20, 31]: ≥ 21.4 µM

Sequence: SSAAQRRGRI
Kd [19, 34]: 0.051 µM

Sequence: GPMPVTHSSA
Kd [16, 34]: 0.00721 µM

Sequence: KEGAFFLYD
IC50 [15, 29]: 46 µM
IC50 [14, 29]: ≥ 3840 µM

Sequence: DFIGKTIGF
Kd [1, 36]: ≥ 20 µM
Kd [2, 36]: ≥ 20 µM
Kd [3, 36]: ≥ 20 µM
Kd [4, 36]: ≥ 20 µM
Kd [5, 36]: ≥ 20 µM
Kd [6, 36]: ≥ 20 µM
Kd [7, 36]: ≥ 20 µM
Kd [24]: ≥ 20 µM
Kd [8, 36]: ≥ 20 µM
Kd [9, 36]: ≥ 20 µM
Kd [10, 36]: ≥ 20 µM
Kd [11, 36]: ≥ 20 µM
Kd [12, 36]: ≥ 20 µM
Kd [13, 36]: 0.186 µM

Sequence: MPGTFQTTTG
Kd [17, 31]: 0.157 µM
Kd [18, 31]: 0.427 µM

Sequence: SPCKIPFEI
Kd [18, 34]: 1.28 µM
Kd [20, 34]: ≥ 47.7 µM

Sequence: HTIENTTANI
Kd [19, 30]: 0.00175 µM
Kd [23, 30]: 2.07 µM

Sequence: MAVLFVVTLI
Kd [19, 32]: 0.533 µM

Kd ([19]; source organism: Homo sapiens): 1.06 µM
Sequence: ELCAEAEEL
